Assay results as given in the supplement of paper PMC9112550, “Optimization of the antimicrobial peptide Bac7 by deep mutational scanning” (BMC Biology, 2022).

System: Escherichia coli TOP10
Assay: shrunken log2 fold change of peptide-encoding DNA abundance (4.5 h post-induction vs induction); higher = less antimicrobial activity (less host growth inhibition)
Details: time post-induction: 4.5 h; library: site-saturation at positions 5, 18, 19, 20
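Further: peptides expressed intracellularly from a pBAD plasmid library in pooled LB shake-flask culture, induced with 0.3% L-arabinose, DNA abundance read by NGS, three biological replicates, DESeq2 with apeglm shrinkage.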

Sequence | shrunken log2 fold change
RRIRKRPPRLPRPRPRPHHNPRP | -0.421
RRIRHRPPRLPRPRPRPMYSPRP | -0.263
RRIRGRPPRLPRPRPRPCISPRP | -0.273
RRIRPRPPRLPRPRPRPCSLPRP | 0.527
RRIRQRPPRLPRPRPRPEYDPRP | -0.168
RRIRHRPPRLPRPRPRPPKEPRP | 0.121
RRIRARPPRLPRPRPRPVGQPRP | 0.225
RRIRRRPPRLPRPRPRPVNPPRP | 0.391
RRIRQRPPRLPRPRPRPHAMPRP | -0.0121
RRIRGRPPRLPRPRPRPFHRPRP | -0.118
RRIRGRPPRLPRPRPRPAHFPRP | 0.238
RRIRMRPPRLPRPRPRPRNPPRP | 3.17
RRIRTRPPRLPRPRPRPIRAPRP | -0.0672
RRIRARPPRLPRPRPRPLYIPRP | -0.293
RRIRMRPPRLPRPRPRPKMTPRP | 2.7
RRIRYRPPRLPRPRPRPGPHPRP | -0.115
RRIRIRPPRLPRPRPRPPEQPRP | 0.118
RRIRDRPPRLPRPRPRPLDPPRP | 0.0323
RRIRCRPPRLPRPRPRPMVRPRP | 0.158
RRIRHRPPRLPRPRPRPFLVPRP | -0.106
RRIRLRPPRLPRPRPRPTVKPRP | -0.0583
RRIRGRPPRLPRPRPRPVDCPRP | 0.496
RRIRQRPPRLPRPRPRPNPYPRP | -0.0811
RRIRHRPPRLPRPRPRPHWTPRP | -0.00191
RRIRFRPPRLPRPRPRPDIQPRP | -0.628
RRIRGRPPRLPRPRPRPWNAPRP | 0.109
RRIRFRPPRLPRPRPRPTKYPRP | -0.635

Sequence | shrunken log2 fold change
RRIRQRPPRLPRPRPRPDYKPRP | -0.0788
RRIRKRPPRLPRPRPRPSSYPRP | 0.0295
RRIRDRPPRLPRPRPRPQTIPRP | -0.164
RRIRRRPPRLPRPRPRPKLYPRP | 0.174
RRIRARPPRLPRPRPRPDQQPRP | -0.0359
RRIRARPPRLPRPRPRPFSLPRP | 0.0486
RRIRFRPPRLPRPRPRPEGRPRP | -0.145
RRIRARPPRLPRPRPRPNVNPRP | -0.0484
RRIRMRPPRLPRPRPRPGSSPRP | 0.198
RRIRGRPPRLPRPRPRPPEAPRP | 1.33
RRIRARPPRLPRPRPRPSPEPRP | 0.41
RRIRMRPPRLPRPRPRPYFGPRP | -0.138
RRIRSRPPRLPRPRPRPSGGPRP | -0.0437
RRIRARPPRLPRPRPRPFLVPRP | -0.205
RRIRSRPPRLPRPRPRPCRMPRP | -0.102
RRIRVRPPRLPRPRPRPAHPPRP | 0.0808
RRIRCRPPRLPRPRPRPEFKPRP | 0.0244
RRIRCRPPRLPRPRPRPVRNPRP | 0.0515
RRIRCRPPRLPRPRPRPPYYPRP | -0.314
RRIRTRPPRLPRPRPRPVITPRP | 0.0105
RRIRGRPPRLPRPRPRPIYLPRP | 0.0531
RRIRYRPPRLPRPRPRPHEVPRP | -0.0317
RRIRSRPPRLPRPRPRPYLHPRP | -0.757
RRIRCRPPRLPRPRPRPLGHPRP | -0.372
RRIRIRPPRLPRPRPRPTPAPRP | 0.198
RRIRGRPPRLPRPRPRPWNIPRP | -0.409
RRIRKRPPRLPRPRPRPESIPRP | 0.235
